Source: article PMC12409426, “Regulation of the MDM2-p53 nexus by a nuclear phosphoinositide and small heat shock protein complex” (The Journal of Biological Chemistry, 2025)

Assays:
Conditions in all cases: both partners purified
[1] = target: T1, His-tagged MDM2 (recombinant, bacteria-expressed) (UniProt Q00987 1-491); assay: MST; fluorescence-labeled αBC or HSP27 (target, 5 nM, RED-NHS) constant, non-labeled His-/FLAG-MDM2 or His-/FLAG-p53 titrated to 500 nM; 50 mM Tris-HCl pH 8.0, 50 mM NaCl, 80 mM KCl, 0.05% Tween-20
T1 construct: MDM2, E3 ubiquitin-protein ligase; His-tagged construct purchased from Genscript; also called His-MDM2; MDM2 recombinant protein; source: E. coli BL-21(DE3), purified (Ni-NTA-agarose)

[2] = target: T2, FLAG-tagged MDM2 (mammalian-expressed, PIPn-linked) (UniProt Q00987 1-491, PIP2 stably associated (PIPn-linked), site not told); assay: as above
T2 construct: MDM2; cDNA purchased from OriGene; Its chemistry and site are unknown; also called FLAG-MDM2; PIPn-linked MDM2; source: HEK293FT, purified (FLAG Purification Kit), dialysed into PBS

[3] = target: T1, His-tagged MDM2 (recombinant, …); assay: MST; fluorescence-labeled MDM2 (target, 5 nM, RED-NHS) constant, non-labeled ligand titrated to 500 nM; 50 mM Tris-HCl pH 8.0, 50 mM NaCl, 80 mM KCl, 0.05% Tween-20; Monolith NT.115 Pico

T1 sequence (Q00987 whole entry): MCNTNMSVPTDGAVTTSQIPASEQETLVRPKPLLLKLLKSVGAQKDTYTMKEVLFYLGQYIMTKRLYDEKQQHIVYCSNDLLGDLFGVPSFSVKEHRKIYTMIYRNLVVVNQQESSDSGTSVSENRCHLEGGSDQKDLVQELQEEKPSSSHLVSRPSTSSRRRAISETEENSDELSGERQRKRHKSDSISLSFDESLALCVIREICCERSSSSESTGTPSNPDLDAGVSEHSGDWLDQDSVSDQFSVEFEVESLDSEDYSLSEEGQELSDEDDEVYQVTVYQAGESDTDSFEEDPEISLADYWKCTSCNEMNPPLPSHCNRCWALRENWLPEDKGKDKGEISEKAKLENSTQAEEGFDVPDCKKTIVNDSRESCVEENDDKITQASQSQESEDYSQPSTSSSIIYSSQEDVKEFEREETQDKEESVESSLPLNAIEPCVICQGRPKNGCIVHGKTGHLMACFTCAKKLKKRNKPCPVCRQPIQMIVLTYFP
T2 sequence (Q00987 whole entry): as above

B1: αB-crystallin (recombinant, His-tagged) (natural protein, UniProt P02511 1-175, looked up)
chain: MDIAIHHPWIRRPFFPFHSPSRLFDQFFGEHLLESDLFPTSTSLSPFYLRPPSFLRAPSWFDTGLSEMRLEKDRFSVNLDVKHFSPEELKVKVLGDVIEVHGKHEERQDEHGFISREFHRKYRIPADVDPLTITSSLSSDGVLTVNGPRKQVSGPERTIPITREEKPAVTAAPKK
notes: αB-crystallin; His-tagged construct purchased from Genscript; source: E. coli BL-21(DE3), purified (Ni-NTA-agarose)
Kd [1]: 58 ± 5 nM
Kd [2]: 7 ± 1 nM
Kd [3]: 58 ± 5 nM
